B1: full-length mouse LIGHT, on cells (mLIGHT-IRES-EGFP) [mouse] / full-length WT mouse HVEM-mCherry, on cells [mouse] (parent complex)
chain 1: MESVVQPSVFVVDGQTDIPFRRLEQNHRRRRCGTVQVSLALVLLLGAGLATQGWFLLRLHQRLGDIVAHLPDGGKGSWEKLIQDQRSHQANPAAHLTGANASLIGIGGPLLWETRLGLAFLRGLTYHDGALVTMEPGYYYVYSKVQLSGVGCPQGLANGLPITHGLYKRTSRYPKELELLVSRRSPCGRANSSRVWWDSSFLGGVVHLEAGEEVVVRVPGNRLVRPRDGTRSYFGAFMV
chain 2: QPSCRQEEFLVGDECCPMCNPGYHVKQVCSEHTGTVCAPCPPQTYTAHANGLSKCLPCGVCDPDMGLLTWQECSSWKDTVCRCIPGYFCENQDGSHCSTCLQHTTCPPGQRVEKRGTHDQDTVCADCLTGTFSLGGTQEECLPWTNCSAFQQEVRRGTNSTDTTCSSQVVYYVVSILLPLVIVGAGIAGFLICTRRHLHTSSVAKELEPFQEQQENTIRFPVTEVGFAETEEETASN

Our source for the ratio to parent values is PMC8558838 (The Journal of Experimental Medicine, 2021).

The variants in this assay derive from B1. Nature of the assay: flow cytometry, cell–cell method. For orientation: In flow cytometry, cells or beads pass a laser one at a time.
In the case of chain 2 QPSCRQEEFLVGDECCPMCNPGYHVKQVCSEHTGTVCAPCPPQTYTAHANGDSKCLPCGVCDPDMGLLTWQECSSWKDTVCRCIPGYFCENQDGSHCSTCLQHTTCPPGQRVEKRGTHDQDTVCADCLTGTFSLGGTQEECLPWTNCSAFQQEVRRGTNSTDTTCSSQVVYYVVSILLPLVIVGAGIAGFLICTRRHLHTSSVAKELEPFQEQQENTIRFPVTEVGFAETEEETASN [chain 2 L52D], the ratio to parent stood at 0.4.

As to chain 2 QPSCRQEEFLVGDECCAMCNPGYHVKQVCSEHTGTVCAPCPPQTYTAHANGLSKCLPCGVCDPDMGLLTWQECSSWKDTVCRCIPGYFCENQDGSHCSTCLQHTTCPPGQRVEKRGTHDQDTVCADCLTGTFSLGGTQEECLPWTNCSAFQQEVRRGTNSTDTTCSSQVVYYVVSILLPLVIVGAGIAGFLICTRRHLHTSSVAKELEPFQEQQENTIRFPVTEVGFAETEEETASN [chain 2 P17A], the ratio to parent came to 0.8.

chain 2 QPSCAQEEFLVGDECCPMCNPGYHVKQVCSEHTGTVCAPCPPQTYTAHANGLSKCLPCGVCDPDMGLLTWQECSSWKDTVCRCIPGYFCENQDGSHCSTCLQHTTCPPGQRVEKRGTHDQDTVCADCLTGTFSLGGTQEECLPWTNCSAFQQEVRRGTNSTDTTCSSQVVYYVVSILLPLVIVGAGIAGFLICTRRHLHTSSVAKELEPFQEQQENTIRFPVTEVGFAETEEETASN [chain 2 R5A]: the ratio to parent is 0.5.

For chain 2 QPSCRQEEFLVGDECCPMCNPGYHVKQVCSEHTGTVCAPCPPQTYTARANGLSKCLPCGVCDPDMGLLTWQECSSWKDTVCRCIPGYFCENQDGSHCSTCLQHTTCPPGQRVEKRGTHDQDTVCADCLTGTFSLGGTQEECLPWTNCSAFQQEVRRGTNSTDTTCSSQVVYYVVSILLPLVIVGAGIAGFLICTRRHLHTSSVAKELEPFQEQQENTIRFPVTEVGFAETEEETASN [chain 2 H48R], the ratio to parent is 1.

For chain 2 QPSCRQEEFLVGDECCPMCNPGYHVKQVCSEHTGTVCAPCPPQTYTADANGLSKCLPCGVCDPDMGLLTWQECSSWKDTVCRCIPGYFCENQDGSHCSTCLQHTTCPPGQRVEKRGTHDQDTVCADCLTGTFSLGGTQEECLPWTNCSAFQQEVRRGTNSTDTTCSSQVVYYVVSILLPLVIVGAGIAGFLICTRRHLHTSSVAKELEPFQEQQENTIRFPVTEVGFAETEEETASN [chain 2 H48D], the ratio to parent turned out to be 0.8.

Consider chain 2 QPSCRQEEFLVGDECCPMCNPGYHVKQVCSEHTGTVCAPCPPQTYTAHDNGLSKCLPCGVCDPDMGLLTWQECSSWKDTVCRCIPGYFCENQDGSHCSTCLQHTTCPPGQRVEKRGTHDQDTVCADCLTGTFSLGGTQEECLPWTNCSAFQQEVRRGTNSTDTTCSSQVVYYVVSILLPLVIVGAGIAGFLICTRRHLHTSSVAKELEPFQEQQENTIRFPVTEVGFAETEEETASN [chain 2 A49D], for which the ratio to parent amounted to 1.2.

On to chain 2 QPSCRQEEFLVGDECCPMCNPGYHVKQVCSEHTGTVCAPCPPQTYTAHANGLSKCLPCGVCDPDMGLLTWQECSSWKDTVCRCIPGYFCENQDGSDCSTCLQHTTCPPGQRVEKRGTHDQDTVCADCLTGTFSLGGTQEECLPWTNCSAFQQEVRRGTNSTDTTCSSQVVYYVVSILLPLVIVGAGIAGFLICTRRHLHTSSVAKELEPFQEQQENTIRFPVTEVGFAETEEETASN [chain 2 H96D], for which the ratio to parent is 0.7.

Consider chain 2 QPSCRQEEFLVGDECCPMCNPGYHVAQVCSEHTGTVCAPCPPQTYTAHANGLSKCLPCGVCDPDMGLLTWQECSSWKDTVCRCIPGYFCENQDGSHCSTCLQHTTCPPGQRVEKRGTHDQDTVCADCLTGTFSLGGTQEECLPWTNCSAFQQEVRRGTNSTDTTCSSQVVYYVVSILLPLVIVGAGIAGFLICTRRHLHTSSVAKELEPFQEQQENTIRFPVTEVGFAETEEETASN [chain 2 K26A], for which the ratio to parent worked out at 1.

With chain 2 QPSCRQEEFLVGDECCPMCNPGYHVKQVCSEHTGTVCAPCPPQTYTAHADGLSKCLPCGVCDPDMGLLTWQECSSWKDTVCRCIPGYFCENQDGSHCSTCLQHTTCPPGQRVEKRGTHDQDTVCADCLTGTFSLGGTQEECLPWTNCSAFQQEVRRGTNSTDTTCSSQVVYYVVSILLPLVIVGAGIAGFLICTRRHLHTSSVAKELEPFQEQQENTIRFPVTEVGFAETEEETASN [chain 2 N50D], the ratio to parent was 0.5.

On to chain 2 QPSCRQEEFLVGDECCPMCNPGYHVKQVCHEHTGTVCAPCPPQTYTAHANGLSKCLPCGVCDPDMGLLTWQECSSWKDTVCRCIPGYFCENQDGSHCSTCLQHTTCPPGQRVEKRGTHDQDTVCADCLTGTFSLGGTQEECLPWTNCSAFQQEVRRGTNSTDTTCSSQVVYYVVSILLPLVIVGAGIAGFLICTRRHLHTSSVAKELEPFQEQQENTIRFPVTEVGFAETEEETASN [chain 2 S30H], for which the ratio to parent stood at 1.1.

Consider chain 2 QPSCRQEEFLVGDECCPMCNPGYHVKQVCDEHTGTVCAPCPPQTYTAHANGLSKCLPCGVCDPDMGLLTWQECSSWKDTVCRCIPGYFCENQDGSHCSTCLQHTTCPPGQRVEKRGTHDQDTVCADCLTGTFSLGGTQEECLPWTNCSAFQQEVRRGTNSTDTTCSSQVVYYVVSILLPLVIVGAGIAGFLICTRRHLHTSSVAKELEPFQEQQENTIRFPVTEVGFAETEEETASN [chain 2 S30D], for which the ratio to parent stood at 0.8.
